Assays:
[1] = target: IANBD-labeled Hsp90 M362C (human); assay: stopped-flow fluorescence; IANBD-labeled Hsp90 M362C (1 µM) mixed with equal volumes of FKBP51, FK1-FK2, FK2-TPR or buffer, pseudo-first-order, 37 °C, 25 mM sodium phosphate/300 mM NaCl pH 7.2; rates as fluorescence increase at 20 s
[2] = target: human full-length Hsp90β (human) (UniProt P08238); assay: ITC; details: domain or fragment
Sequence of human full-length Hsp90β (human) (P08238 whole entry, the tested form may be a part): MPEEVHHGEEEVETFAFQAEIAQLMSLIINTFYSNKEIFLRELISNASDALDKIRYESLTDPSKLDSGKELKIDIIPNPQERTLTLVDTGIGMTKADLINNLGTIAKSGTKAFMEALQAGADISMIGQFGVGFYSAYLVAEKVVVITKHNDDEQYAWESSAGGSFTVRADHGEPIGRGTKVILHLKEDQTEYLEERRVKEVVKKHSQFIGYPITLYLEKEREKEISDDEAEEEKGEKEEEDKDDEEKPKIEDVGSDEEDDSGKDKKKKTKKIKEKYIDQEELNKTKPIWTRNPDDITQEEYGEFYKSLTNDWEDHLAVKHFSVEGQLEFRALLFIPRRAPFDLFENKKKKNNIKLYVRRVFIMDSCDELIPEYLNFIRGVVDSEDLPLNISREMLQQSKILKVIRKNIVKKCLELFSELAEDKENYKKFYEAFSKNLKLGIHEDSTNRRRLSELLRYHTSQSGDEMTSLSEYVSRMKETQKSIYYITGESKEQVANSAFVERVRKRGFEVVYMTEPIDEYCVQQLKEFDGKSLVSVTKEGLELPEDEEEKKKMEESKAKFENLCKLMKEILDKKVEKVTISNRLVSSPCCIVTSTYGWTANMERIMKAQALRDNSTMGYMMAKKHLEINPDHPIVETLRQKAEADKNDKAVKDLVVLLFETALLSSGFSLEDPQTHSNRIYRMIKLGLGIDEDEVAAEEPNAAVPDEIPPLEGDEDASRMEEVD

Sequence of FK2-TPR (which lacks FK1) (Q13451 whole entry): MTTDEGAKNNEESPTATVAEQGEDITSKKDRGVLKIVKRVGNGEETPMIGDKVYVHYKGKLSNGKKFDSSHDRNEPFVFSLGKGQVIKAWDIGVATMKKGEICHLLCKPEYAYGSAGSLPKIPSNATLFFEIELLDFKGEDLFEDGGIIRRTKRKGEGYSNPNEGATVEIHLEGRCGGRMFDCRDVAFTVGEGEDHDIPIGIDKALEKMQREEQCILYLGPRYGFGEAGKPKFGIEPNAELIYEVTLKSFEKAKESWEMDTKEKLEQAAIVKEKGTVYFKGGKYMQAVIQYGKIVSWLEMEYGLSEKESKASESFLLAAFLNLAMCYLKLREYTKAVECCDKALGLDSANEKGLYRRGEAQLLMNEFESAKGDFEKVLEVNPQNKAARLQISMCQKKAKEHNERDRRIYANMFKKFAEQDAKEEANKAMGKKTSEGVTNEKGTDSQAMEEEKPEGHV

Row | ΔF (rate of Hsp90 binding, fluorescence increase) [1] | Kd [2] | Substance
1 | 0.0027 s⁻¹ | – | FK2-TPR (which lacks FK1) (from UniProt Q13451 1-457) (domain or fragment)
2 | – | 728 nM | FK2-TPR (which lacks FK1) (from UniProt Q13451 1-457)

— article PMC6208366
